Measured values as given in patent EP4631959A2, “NOVEL MINIGASTRIN-DERIVED CHOLECYSTOKININ 2 RECEPTOR BINDING MOLECULES FOR IMAGING AND TARGETED RADIOTHERAPY” (priority 2022, dated 2024).
Read-outs that look alike come from different tables or passages of the source. Starred links: 1 amine or outer side, 2 acyl side, 3 side chain; linkers in the order of their positions; H or OH if unused. Non-standard residues stand in square brackets, D forms with d. Residues, ends and D or L forms follow the SMILES beside them. *: point of attachment. DOTAGA = O=C(O)CN1CCN(CC(=O)O)CCN(C(CCC(=O)*)C(=O)O)CCN(CC(=O)O)CC1; Benzoyl(4-SiFtBu2) = CC(C)(C)[Si](F)(c1ccc(C(=O)*)cc1)C(C)(C)C; DOTA = O=C(O)CN1CCN(CC(=O)O)CCN(CC(=O)*)CCN(CC(=O)O)CC1; d(γGlu) = O=C(O)[C@@H](CCC(=O)[*:2])N[*:1]; 1Nal = N[C@@H](Cc1cccc2ccccc12)C(=O)O; PEG5 = NCCOCCOCCOCCOCCOCCC(=O)O; NMeNle = CCCC[C@H](NC)C(=O)O; PEG4 = NCCOCCOCCOCCOCCC(=O)O; Nle = CCCC[C@H](N)C(=O)O; dDap = NC[C@@H](N)C(=O)O

Experiments:
[1] = target: T1, Human serum albumin (HSA) (Homo sapiens, UniProt P02768); experiment: Determination of HSA binding on a Chiralpak HSA column; format: in vitro ADME; conditions: for HSA binding [%]: Tab. 8, metal not stated (Fig. 18: ^natLu)
T1 construct: purchased Daicel, Tokyo, Japan H13H-2433
Experimental: Human serum albumin (HSA) binding of the CCK-2R-targeted compounds was determined as reported by Valko et al., using a Chiralpak HSA column (50 x 3 mm, 5 µm, H13H-2433, Daicel, Tokyo, Japan) at a constant flow rate of 0.5 mL/min at rt. Therefore, an aq. solution of NH4OAc (pH = 6.9, 50 mM) as mobile phase A and isopropanol as mobile phase B were freshly prepared. In order to calibrate the column prior to the experiments, the retention times of nine reference substances with a HSA binding in the range of 13 to 99% were determined using a gradient of 100% A (0 to 3 min), followed by 80% A (3 to 40 min). Furthermore, all substances tested, were dissolved in a mixture (1/1, v/v) of A and B reaching a final concentration of 0.5 mg/mL. The HSA binding of all rhCCK ligands tested, was determined using the same gradient as for the calibration probes. The non-linear regression of the calibration experiments and the CCK-2R ligands (Fig. 29) was established using the OriginPro 2016G software (Northampton, United States).

CCK-2R = target: T2, CCK-2R (Rattus norvegicus, UniProt P30553); experiment: Determination of IC50: CCK-2R affinity on AR4-2J cells, competition with [^177Lu]Lu-DOTA-PP-F11N; format: binding; conditions: AR4-2J cells
T2 construct: The CCK-2R expressing rat pancreatic tumor cells AR4-2J; host or cells: AR4-2J rat pancreatic tumor cells
T2 sequence (P30553 1-452): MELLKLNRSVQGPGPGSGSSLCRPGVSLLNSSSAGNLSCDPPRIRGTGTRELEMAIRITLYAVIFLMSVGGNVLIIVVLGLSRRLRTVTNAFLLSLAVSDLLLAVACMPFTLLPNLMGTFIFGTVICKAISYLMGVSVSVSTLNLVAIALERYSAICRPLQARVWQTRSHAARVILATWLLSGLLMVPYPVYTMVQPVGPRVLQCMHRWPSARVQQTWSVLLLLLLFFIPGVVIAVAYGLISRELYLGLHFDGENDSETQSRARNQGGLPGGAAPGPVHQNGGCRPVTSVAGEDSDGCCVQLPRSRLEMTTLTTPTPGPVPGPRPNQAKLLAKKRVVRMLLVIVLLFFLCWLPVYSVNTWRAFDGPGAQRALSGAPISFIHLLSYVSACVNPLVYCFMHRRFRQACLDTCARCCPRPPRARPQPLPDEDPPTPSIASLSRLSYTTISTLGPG
Procedure, shortened: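 Competitive displacement of 0.3 pmol/well [177Lu]Lu-DOTA-PP-F11N by compounds (10^-10 to 10^-4 M) on AR4-2J cells in BSA-supplemented medium, 3 h at 37 °C. Free label was collected from medium plus PBS rinse, and cell-bound label was recovered with 1 M NaOH, both measured by γ-counter. Each IC50 was determined twice, in triplicate.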

[2] = n-Octanol-PBS distribution coefficient (logD7.4); format: physicochemical; conditions: for logD7.4 (n ≥ 5), ^177Lu-labeled: pH = 7.4, ^177Lu-labeled
Experimental: Approximately 1 MBq of the labeled tracer was dissolved in 1 mL of a 1/1 mixture (v/v) of phosphate buffered saline (PBS, pH = 7.4) and n-octanol in an Eppendorf tube (1.5 mL). After vigorous mixing of the suspension for 3 min at rt, the vial was centrifuged at 9,000 rpm for 5 min (Biofuge 15, Heraeus Sepatech, Osterode, Germany) and 200 µL aliquots of both layers were measured in a γ-counter. The experiment was repeated at least five times.

[3] = ^natLu-labeled, read-out: IC50 [nM] (n = 3), ^natLu-labeled
[4] = read-out: IC50 [nM] (n = 3), ^natGa-labeled, ^natGa-labeled
[5] = read-out: IC50 [nM] (n = 3), ^natLu-labeled, ^natLu-labeled

T1 sequence (P02768 25-609): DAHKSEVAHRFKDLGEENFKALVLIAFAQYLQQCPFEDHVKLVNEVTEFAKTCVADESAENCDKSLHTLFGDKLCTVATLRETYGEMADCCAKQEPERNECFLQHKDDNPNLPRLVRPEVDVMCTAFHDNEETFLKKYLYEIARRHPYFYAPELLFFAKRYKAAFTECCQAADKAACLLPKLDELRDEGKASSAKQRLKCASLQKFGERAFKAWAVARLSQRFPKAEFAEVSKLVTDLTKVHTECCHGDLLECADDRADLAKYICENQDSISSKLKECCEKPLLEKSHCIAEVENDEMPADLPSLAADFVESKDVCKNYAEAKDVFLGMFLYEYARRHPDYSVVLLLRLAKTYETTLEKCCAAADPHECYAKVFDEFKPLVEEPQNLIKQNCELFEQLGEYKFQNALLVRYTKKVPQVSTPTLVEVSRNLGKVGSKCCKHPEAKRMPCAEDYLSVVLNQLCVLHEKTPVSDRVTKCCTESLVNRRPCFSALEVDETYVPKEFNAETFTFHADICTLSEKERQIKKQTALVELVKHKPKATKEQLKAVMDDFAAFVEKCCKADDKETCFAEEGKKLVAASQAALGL

SMILES: CCCC[C@@H](C(=O)N[C@@H](CC(=O)O)C(=O)N[C@@H](Cc1cccc2ccccc12)C(N)=O)N(C)C(=O)[C@H](Cc1c[nH]c2ccccc12)NC(=O)CCOCCOCCOCCOCCNC(=O)[C@@H](CCC(=O)O)NC(=O)CN1CCN(CC(=O)O)CCN(CC(=O)O)CCN(CC(=O)O)CC1 [DOTA-CCK-66.2, DOTA-glu-(PEG)3-Trp-(N-Me)Nle-Asp-1-Nal-NH2] ({DOTA}-[dE][PEG4]W[NMeNle]D[1Nal]-NH2)
- HSA binding [%], ^natCu-labeled [1]: 61.1%
- HSA binding [%], ^natGa-labeled [1]: 54.2%
- HSA binding [%], ^natLu-labeled [1]: 72.7%
- IC50 (CCK-2R; ^natCu-labeled, read-out: IC50 [nM] (n = 3), ^natCu-labeled): 5.8 ± 0.2 nM
- IC50 (CCK-2R; ^natGa-labeled, read-out: IC50 [nM] (n = 3), ^natGa-labeled): 6 ± 1 nM
- IC50 (CCK-2R; [3]): 4.8 ± 0.9 nM
- logD7.4 (n ≥ 5), ^64Cu-labeled ([2]; pH = 7.4, ^64Cu-labeled): −2.84 ± 0.08
- logD7.4 (n ≥ 5), ^67Ga-labeled ([2]; pH = 7.4, ^67Ga-labeled): −2.55 ± 0.04
- logD7.4 (n ≥ 5), ^177Lu-labeled [2]: −2.69 ± 0.09

SMILES: CCCC[C@@H](C(=O)N[C@@H](CC(=O)O)C(=O)N[C@@H](Cc1cccc2ccccc12)C(N)=O)N(C)C(=O)[C@H](Cc1c[nH]c2ccccc12)NC(=O)CCOCCOCCOCCOCCNC(=O)CC[C@@H](NC(=O)CCOCCOCCOCCOCCOCCNC(=O)[C@@H](CNC(=O)c1ccc([Si](F)(C(C)(C)C)C(C)(C)C)cc1)NC(=O)CN1CCN(CC(=O)O)CCN(CC(=O)O)CCN(CC(=O)O)CC1)C(=O)O [DOTA-rhCCK-67, DOTA-dap(SiFA)-(PEG)4-γ-glu-(PEG)3-Trp-(N-Me)Nle-Asp-1-Nal-NH2] ({DOTA}-[dDap](Benzoyl(4-SiFtBu2))[PEG5][d(γGlu)][PEG4]W[NMeNle]D[1Nal]-NH2)
- HSA binding [%] [1]: 92.9%
- IC50 (CCK-2R; [3]): 13 ± 1.1 nM
- IC50 (CCK-2R; [4]): 49.5 ± 3.7 nM
- logD7.4 (n ≥ 5), ^177Lu-labeled [2]: −1.05 ± 0.09

SMILES: CCCC[C@@H](C(=O)N[C@@H](CC(=O)O)C(=O)N[C@@H](Cc1cccc2ccccc12)C(N)=O)N(C)C(=O)[C@H](Cc1c[nH]c2ccccc12)NC(=O)CCOCCOCCOCCOCCNC(=O)CC[C@@H](NC(=O)CCOCCOCCOCCOCCOCCNC(=O)CC[C@@H](NC(=O)[C@@H](CNC(=O)c1ccc([Si](F)(C(C)(C)C)C(C)(C)C)cc1)NC(=O)CN1CCN(CC(=O)O)CCN(CC(=O)O)CCN(CC(=O)O)CC1)C(=O)O)C(=O)O [DOTA-rhCCK-68, DOTA-dap(SiFA)-γ-glu-(PEG)4-γ-glu-(PEG)3-Trp-(N-Me)Nle-Asp-1-Nal-NH2]
- HSA binding [%] [1]: 91.2%
- IC50 (CCK-2R; [3]): 15.4 ± 1.1 nM
- IC50 (CCK-2R; [4]): 36.9 ± 5.4 nM
- logD7.4 (n ≥ 5), ^177Lu-labeled [2]: −1.65 ± 0.09

SMILES: CCCC[C@@H](C(=O)N[C@@H](CC(=O)O)C(=O)N[C@@H](Cc1cccc2ccccc12)C(N)=O)N(C)C(=O)[C@H](Cc1c[nH]c2ccccc12)NC(=O)CCOCCOCCOCCOCCNC(=O)CC[C@@H](NC(=O)CCOCCOCCOCCOCCOCCOCCOCCOCCOCCOCCOCCOCCNC(=O)CC[C@@H](NC(=O)[C@@H](CNC(=O)c1cc(C(=O)O)cc([Si](F)(C(C)(C)C)C(C)(C)C)c1)NC(=O)CN1CCN(CC(=O)O)CCN(CC(=O)O)CCN(CC(=O)O)CC1)C(=O)O)C(=O)O [DOTA-rhCCK-69, DOTA-dap(SiFA-ipa)-γ-glu-(PEG)11-γ-glu-(PEG)3-Trp-(N-Me)Nle-Asp-1-Nal-NH2]
- HSA binding [%] [1]: 84.7%
- IC50 (CCK-2R; [3]): 43.1 ± 1.7 nM
- logD7.4 (n ≥ 5), ^177Lu-labeled [2]: −2.11 ± 0.09

SMILES: CCCC[C@H](NC(=O)[C@H](Cc1c[nH]c2ccccc12)NC(=O)CNC(=O)[C@H](Cc1ccc(O)cc1)NC(=O)[C@H](C)NC(=O)CC[C@@H](NC(=O)CC[C@@H](NC(=O)CC[C@@H](NC(=O)CC[C@@H](NC(=O)CC[C@@H](NC(=O)CC[C@@H](NC(=O)CC[C@@H](NC(=O)CC[C@@H](NC(=O)[C@@H](CNC(=O)c1ccc([Si](F)(C(C)(C)C)C(C)(C)C)cc1)NC(=O)CCC(C(=O)O)N1CCN(CC(=O)O)CCN(CC(=O)O)CCN(CC(=O)O)CC1)C(=O)O)C(=O)O)C(=O)O)C(=O)O)C(=O)O)C(=O)O)C(=O)O)C(=O)O)C(=O)N[C@@H](CC(=O)O)C(=O)N[C@@H](Cc1ccccc1)C(N)=O (stereo partly shown) [DOTAGA-MG-SiFA-23, DOTAGA-dap(SiFA)-(γ-glu)2-γ-F11N]
- IC50 (CCK-2R; [5]): 20.4 ± 2 nM
- logD7.4 (n ≥ 5), ^177Lu-labeled [2]: −2.10 ± 0.06

SMILES: CCCC[C@H](NC(=O)[C@H](Cc1c[nH]c2ccccc12)NC(=O)CNC(=O)[C@H](Cc1ccc(O)cc1)NC(=O)[C@H](C)NC(=O)CC[C@@H](NC(=O)CC[C@@H](NC(=O)CC[C@@H](NC(=O)CC[C@@H](NC(=O)[C@@H](CNC(=O)c1ccc([Si](F)(C(C)(C)C)C(C)(C)C)cc1)NC(=O)CC[C@@H](NC(=O)CC[C@@H](NC(=O)CC[C@@H](NC(=O)CCC(C(=O)O)N1CCN(CC(=O)O)CCN(CC(=O)O)CCN(CC(=O)O)CC1)C(=O)O)C(=O)O)C(=O)O)C(=O)O)C(=O)O)C(=O)O)C(=O)O)C(=O)N[C@@H](CC(=O)O)C(=O)N[C@@H](Cc1ccccc1)C(N)=O (stereo partly shown) [DOTAGA-MG-SiFA-24, DOTAGA-(γ-glu)2-[dap(SiFA)^2]γ-F11N] ({DOTAGA-d(γGlu)-d(γGlu)-d(γGlu)}-[dDap](Benzoyl(4-SiFtBu2))[d(γGlu)][d(γGlu)][d(γGlu)][d(γGlu)]AYGW[Nle]DF-NH2)
- IC50 (CCK-2R; [5]): 66.6 ± 4.4 nM
- logD7.4 (n ≥ 5), ^177Lu-labeled [2]: −2.72 ± 0.05

SMILES: CCCC[C@H](NC(=O)[C@H](Cc1c[nH]c2ccccc12)NC(=O)CNC(=O)[C@H](Cc1ccc(O)cc1)NC(=O)[C@H](C)NC(=O)CC[C@@H](NC(=O)CC[C@@H](NC(=O)CC[C@@H](NC(=O)CC[C@@H](NC(=O)[C@@H](CNC(=O)c1ccc([Si](F)(C(C)(C)C)C(C)(C)C)cc1)NC(=O)CC[C@@H](NC(=O)CC[C@@H](NC(=O)CC[C@@H](NC(=O)CC[C@@H](NC(=O)CCC(C(=O)O)N1CCN(CC(=O)O)CCN(CC(=O)O)CCN(CC(=O)O)CC1)C(=O)O)C(=O)O)C(=O)O)C(=O)O)C(=O)O)C(=O)O)C(=O)O)C(=O)O)C(=O)N[C@@H](CC(=O)O)C(=O)N[C@@H](Cc1ccccc1)C(N)=O (stereo partly shown) [DOTAGA-MG-SiFA-25, DOTAGA-(γ-glu)3-[dap(SiFA)^2]γ-F11N] ({DOTAGA-d(γGlu)-d(γGlu)-d(γGlu)-d(γGlu)}-[dDap](Benzoyl(4-SiFtBu2))[d(γGlu)][d(γGlu)][d(γGlu)][d(γGlu)]AYGW[Nle]DF-NH2)
- IC50 (CCK-2R; [5]): 62.9 ± 8.1 nM
- logD7.4 (n ≥ 5), ^177Lu-labeled [2]: −2.74 ± 0.04

SMILES: CCCC[C@H](NC(=O)[C@H](Cc1c[nH]c2ccccc12)NC(=O)CNC(=O)[C@H](Cc1ccc(O)cc1)NC(=O)[C@H](C)NC(=O)CC[C@@H](NC(=O)CC[C@@H](NC(=O)CC[C@@H](NC(=O)CC[C@@H](NC(=O)CC[C@@H](NC(=O)[C@@H](CNC(=O)c1ccc([Si](F)(C(C)(C)C)C(C)(C)C)cc1)NC(=O)CC[C@@H](NC(=O)CC[C@@H](NC(=O)CC[C@@H](NC(=O)CC[C@@H](NC(=O)CCC(C(=O)O)N1CCN(CC(=O)O)CCN(CC(=O)O)CCN(CC(=O)O)CC1)C(=O)O)C(=O)O)C(=O)O)C(=O)O)C(=O)O)C(=O)O)C(=O)O)C(=O)O)C(=O)O)C(=O)N[C@@H](CC(=O)O)C(=O)N[C@@H](Cc1ccccc1)C(N)=O (stereo partly shown) [DOTAGA-MG-SiFA-26, DOTAGA-(γ-glu)4-[dap(SiFA)^1]γ-F11N] ({DOTAGA-d(γGlu)-d(γGlu)-d(γGlu)-d(γGlu)}-[dDap](Benzoyl(4-SiFtBu2))[d(γGlu)][d(γGlu)][d(γGlu)][d(γGlu)][d(γGlu)]AYGW[Nle]DF-NH2)
- IC50 (CCK-2R; [5]): 37.1 ± 3.8 nM
- logD7.4 (n ≥ 5), ^177Lu-labeled [2]: −2.89 ± 0.04
